Experimental data published in the supplement of paper PMC10567573.

B1: CHMP4C (parent)
chain: TNIRLPNVPSSSLPAQPNRKPGMS

Variants of: B1
Test: protein stability index of a GFP-peptide fusion (GPS, HEK-293T) (PSI 1-6); higher = more stable
Conditions: c terminus: a fixed tail appended
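Also: lentivirally expressed fusions sorted by FACS into six bins by GFP to DsRed ratio, PSI derived from sequencing read proportions per bin multiplied by bin number.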

Point of comparison: TNIPLPNVPSSSLPAQPNRKPGMS [R4P], protein stability index 4.73. Against it:
- TNIRLPYVPSSSLPAQPNRKPGMS [N7Y] — lower, 4.13
- TNIRLPGVPSSSLPAQPNRKPGMS [N7G] — higher, 4.76
- TNIRLPQVPSSSLPAQPNRKPGMS [N7Q] — lower, 4.1
- TNIRLPFVPSSSLPAQPNRKPGMS [N7F] — lower, 3.38
- TNIRLPLVPSSSLPAQPNRKPGMS [N7L] — lower, 4.67
- TNIRLPDVPSSSLPAQPNRKPGMS [N7D] — lower, 4.49
- TNIRLPVVPSSSLPAQPNRKPGMS [N7V] — lower, 4.45
- TNIRLPPVPSSSLPAQPNRKPGMS [N7P] — higher, 5.37
- TNIRLPHVPSSSLPAQPNRKPGMS [N7H] — lower, 4.62
- TNIRLPTVPSSSLPAQPNRKPGMS [N7T] — higher, 4.95
- TNIRLPSVPSSSLPAQPNRKPGMS [N7S] — higher, 4.89
- TNIRLPIVPSSSLPAQPNRKPGMS [N7I] — lower, 3.95
- TNIRLPCVPSSSLPAQPNRKPGMS [N7C] — lower, 4.56
- TNIRLPKVPSSSLPAQPNRKPGMS [N7K] — lower, 4.52
- TNIRLPAVPSSSLPAQPNRKPGMS [N7A] — lower, 4.61
- TNIRLPEVPSSSLPAQPNRKPGMS [N7E] — lower, 4.26
- TNIRLPMVPSSSLPAQPNRKPGMS [N7M] — higher, 4.82
- TNIRLPWVPSSSLPAQPNRKPGMS [N7W] — lower, 4.11
- TNIRLPRVPSSSLPAQPNRKPGMS [N7R] — lower, 4.41
- TNIRLPNVTSSSLPAQPNRKPGMS [P9T] — lower, 4.55
- TNIRLPNVYSSSLPAQPNRKPGMS [P9Y] — lower, 3.62
- TNIRLPNVASSSLPAQPNRKPGMS [P9A] — lower, 4.62
- TNIRLPNVHSSSLPAQPNRKPGMS [P9H] — lower, 4.49
- TNIRLPNVDSSSLPAQPNRKPGMS [P9D] — higher, 4.77
- TNIRLPNVMSSSLPAQPNRKPGMS [P9M] — lower, 4.36
- TNIRLPNVNSSSLPAQPNRKPGMS [P9N] — higher, 4.89
- TNIRLPNVRSSSLPAQPNRKPGMS [P9R] — lower, 4.45
- TNIRLPNVLSSSLPAQPNRKPGMS [P9L] — lower, 3.85
- TNIRLPNVSSSSLPAQPNRKPGMS [P9S] — lower, 4.68
- TNIRLPNVKSSSLPAQPNRKPGMS [P9K] — higher, 4.78
- TNIRLPNVVSSSLPAQPNRKPGMS [P9V] — lower, 4.71
- TNIRLPNVCSSSLPAQPNRKPGMS [P9C] — lower, 4.33
- TNIRLPNVGSSSLPAQPNRKPGMS [P9G] — lower, 4.52
- TNIRLPNVQSSSLPAQPNRKPGMS [P9Q] — higher, 5.12
- TNIRLPNVWSSSLPAQPNRKPGMS [P9W] — lower, 3.53
- TNIRLPNVESSSLPAQPNRKPGMS [P9E] — higher, 4.94
- TNIRLPNVFSSSLPAQPNRKPGMS [P9F] — lower, 4.22
- TNIRLPNVISSSLPAQPNRKPGMS [P9I] — lower, 4.3
- TNIRRPNVPSSSLPAQPNRKPGMS [L5R] — lower, 4.42
- TNIRQPNVPSSSLPAQPNRKPGMS [L5Q] — lower, 4.69
- TNIRWPNVPSSSLPAQPNRKPGMS [L5W] — lower, 4.31
- TNIRCPNVPSSSLPAQPNRKPGMS [L5C] — higher, 4.92
- TNIRYPNVPSSSLPAQPNRKPGMS [L5Y] — lower, 4.58
- TNIRNPNVPSSSLPAQPNRKPGMS [L5N] — lower, 4.68
- TNIRTPNVPSSSLPAQPNRKPGMS [L5T] — higher, 4.74
- TNIRPPNVPSSSLPAQPNRKPGMS [L5P] — higher, 4.88
- TNIRKPNVPSSSLPAQPNRKPGMS [L5K] — lower, 4.71
- TNIRDPNVPSSSLPAQPNRKPGMS [L5D] — higher, 5.05
- TNIRFPNVPSSSLPAQPNRKPGMS [L5F] — lower, 4.38
- TNIRIPNVPSSSLPAQPNRKPGMS [L5I] — lower, 4.61
- TNIRSPNVPSSSLPAQPNRKPGMS [L5S] — lower, 4.18
- TNIRAPNVPSSSLPAQPNRKPGMS [L5A] — lower, 4.71
- TNIREPNVPSSSLPAQPNRKPGMS [L5E] — lower, 4.46
- TNIRGPNVPSSSLPAQPNRKPGMS [L5G] — higher, 5.1
- TNIRMPNVPSSSLPAQPNRKPGMS [L5M] — higher, 4.76
- TNIRHPNVPSSSLPAQPNRKPGMS [L5H] — lower, 4.62
- TNIRVPNVPSSSLPAQPNRKPGMS [L5V] — lower, 4.7
- TNIKLPNVPSSSLPAQPNRKPGMS [R4K] — lower, 3.88
- TNITLPNVPSSSLPAQPNRKPGMS [R4T] — lower, 4.61
- TNIWLPNVPSSSLPAQPNRKPGMS [R4W] — lower, 2.96
- TNIFLPNVPSSSLPAQPNRKPGMS [R4F] — lower, 4.18
- TNIHLPNVPSSSLPAQPNRKPGMS [R4H] — lower, 4.06
- TNILLPNVPSSSLPAQPNRKPGMS [R4L] — lower, 4.26
- TNICLPNVPSSSLPAQPNRKPGMS [R4C] — higher, 4.77
- TNINLPNVPSSSLPAQPNRKPGMS [R4N] — lower, 2.96
- TNIILPNVPSSSLPAQPNRKPGMS [R4I] — lower, 3.37
- TNIVLPNVPSSSLPAQPNRKPGMS [R4V] — lower, 4.35
- TNIYLPNVPSSSLPAQPNRKPGMS [R4Y] — lower, 4.24
- TNIDLPNVPSSSLPAQPNRKPGMS [R4D] — lower, 4.34
- TNIQLPNVPSSSLPAQPNRKPGMS [R4Q] — lower, 4.19
- TNIELPNVPSSSLPAQPNRKPGMS [R4E] — lower, 4.68
- TNIMLPNVPSSSLPAQPNRKPGMS [R4M] — lower, 4.51
- TNISLPNVPSSSLPAQPNRKPGMS [R4S] — lower, 4.29
- TNIALPNVPSSSLPAQPNRKPGMS [R4A] — higher, 4.79
- TNIGLPNVPSSSLPAQPNRKPGMS [R4G] — lower, 4.69
- TNIRLPNVPHSSLPAQPNRKPGMS [S10H] — higher, 4.76
- TNIRLPNVPPSSLPAQPNRKPGMS [S10P] — lower, 4.39
- TNIRLPNVPFSSLPAQPNRKPGMS [S10F] — lower, 4.05
- TNIRLPNVPQSSLPAQPNRKPGMS [S10Q] — the same, 4.73
- TNIRLPNVPNSSLPAQPNRKPGMS [S10N] — lower, 3.58
- TNIRLPNVPISSLPAQPNRKPGMS [S10I] — lower, 4.6
- TNIRLPNVPVSSLPAQPNRKPGMS [S10V] — lower, 4.2
- TNIRLPNVPMSSLPAQPNRKPGMS [S10M] — lower, 4.48
- TNIRLPNVPESSLPAQPNRKPGMS [S10E] — lower, 4.51
- TNIRLPNVPLSSLPAQPNRKPGMS [S10L] — lower, 4.09
- TNIRLPNVPGSSLPAQPNRKPGMS [S10G] — higher, 4.75
- TNIRLPNVPCSSLPAQPNRKPGMS [S10C] — higher, 4.83
- TNIRLPNVPASSLPAQPNRKPGMS [S10A] — lower, 4.62
- TNIRLPNVPYSSLPAQPNRKPGMS [S10Y] — lower, 4.22
- TNIRLPNVPDSSLPAQPNRKPGMS [S10D] — higher, 4.84
- TNIRLPNVPKSSLPAQPNRKPGMS [S10K] — lower, 4.24
- TNIRLPNVPRSSLPAQPNRKPGMS [S10R] — lower, 4.06
- TNIRLPNVPTSSLPAQPNRKPGMS [S10T] — lower, 4.1
